# Test results as given in the RNAGym collection of RNA variant scans (doi:10.1101/gr.219683.116).
# B1: mRNA-splicing (parent)
# chain: AGUUGCUGCUGGGAGCUCCAGCACAGUGAAAUGGACAGAAGGGCAGAGCAA
# Variants of: B1
# Experiment: exon inclusion enrichment index; higher = more inclusion; WT1 exon 5 minigene, HEK293
row,Variant,exon inclusion enrichment index
1,U4A G5A C6G U7G C9A,0.0163
2,G2U U3G G5C C6U G8C C9U U10C,3.99
3,U4C C6G U7C U10C,3.95
4,U3C U4A C6A U7C C9A U10C,2.21
5,U3G U4C G5C C6G U7C U10C,2.03
6,U4A G5U C6A U7A C9A U10A,0.0651
7,U4A G5C U7C G8A U10C,2.34
8,U3C U4C C6A U7C C9A U10C,4.17
9,U4A G5C C6A U7C C9A U10C,2.5
10,G2C G5A C6U U7A G8U C9A,0.0726
11,U3A U4G G5A U7C G8A U10C,3.06
12,U3A G5A U7C G8A U10C,3.2
13,U4C G5A C6A U7C G8A U10A,0.437
14,U4C U7C G8A U10C,3.91
15,U3C U4C G5A C6U U7A G8U C9A,0.481
16,G2A U3G G5C C6U G8C C9U U10C,1.42
17,U4G G5A,0.101
18,U4C G5C C6A U7C C9A U10C,3.54
19,G2A U3G G5C C6G U7C U10C,2.14
20,U3A U4A C6A U7C C9A U10C,1.08
21,U4C G8U C9U,2.06
22,U4C G5A C6A U7C C9A U10C,4.23
23,U3G U4C G5A C6U U7A G8U C9A,0.122
24,U4C G5A C6U G8C C9U U10C,1.56

row,Variant,exon inclusion enrichment index
1,G2U U3C C6A U7C C9A U10C,4.67
2,G2A C6A U7C C9A U10C,4.19
3,U3G G5C C6A U7C G8A U10A,0.043
4,U4A G5C C6A U7A C9A U10A,0.526
5,G2U,0.476
6,G2A,0.419
7,G2C,0.141
8,G2U G5U G8U C9U,0.329
9,U4G C6U U7A G8U C9A,0.0761
10,U3G U4C G5A C6G U7G C9A,0.0394
11,U3C G5U G8U C9U,0.0225
12,U3G U4C G5C C6U G8C C9U U10C,1.03
13,G2C U3A,0.0779
14,G2C U3C,0.044
15,G2C U3G,0.163
16,G2C U3C G5C C6G U7C U10C,3.45
17,U4G G5A C6A U7C C9A U10C,3.42
18,U3A G5C C6U G8C C9U U10C,2.74
19,U4C G5U C6A U7C C9A U10C,4.16
20,U3A U4C G5A C6G U7G C9A,0.0761
21,G2A U3A,0.0502
22,G2A U3G,0.0392
23,G2A U3C,0.0113
24,G2U G5C C6G U7C U10C,4.96

row,Variant,exon inclusion enrichment index
1,G2A U3C G5U G8U C9U,0.198
2,G2A G5C C6G U7C U10C,3.98
3,U4A G5A G8U C9U,0.144
4,U4A G5C C6U G8C C9U U10C,1.68
5,U4A C6U G8C C9U U10C,0.0827
6,G2A U3G G5C C6A U7C G8A U10A,0.0866
7,U4C C6G U7G C9A,0.355
8,G2C U3C G5C C6A U7C G8A U10A,0.119
9,U3C U4G G5U G8U C9U,0.61
10,G2A U3C G5C C6A U7C G8A U10A,0.124
11,U4G C6A U7C C9A U10C,2.45
12,U3A U4G C6A U7A C9A U10A,0.245
13,U3G U4G C6A U7A C9A U10A,0.0489
14,U3C U4G G5A C6U U7A G8U C9A,0.312
15,U4G C6G U7G C9A,0.0187
16,U4C G5C C6A U7C G8A U10A,0.286
17,U4C C6A U7C G8A U10A,1.12
18,U3A U4C G5U G8U C9U,0.407
19,U3G U4G G5A U7C G8A U10C,1.93
20,U3A C6A U7C C9A U10C,3.37
21,G2C U3C G5U G8U C9U,0.29
22,U4G G5A C6A U7C G8A U10A,0.403
23,G2A U3C G5A C6U U7A G8U C9A,0.0801
24,G2C U3C G5A U7C G8A U10C,2.27

row,Variant,exon inclusion enrichment index
1,U4C C6A U7C C9A U10C,4.65
2,U3A U4A,0.0787
3,U3A U4G,0.0422
4,U3A U4C,0.355
5,U3A G5C C6G U7C U10C,4.21
6,G2A U3A G5A C6G U7G C9A,0.00701
7,U4A G5C C6A U7C G8A U10A,0.0584
8,U4A G5U C6A U7C C9A U10C,2.45
9,U3G G5C C6U G8C C9U U10C,0.696
10,U3G U4C C6A U7A C9A U10A,1.04
11,G2U U3A G5A C6U U7A G8U C9A,0.247
12,U3C U4C G5C C6U G8C C9U U10C,0.521
13,G2U U3C G5A C6U U7A G8U C9A,0.557
14,U3C C6A U7A C9A U10A,1.1
15,U3G G5A C6U U7A G8U C9A,0.0113
16,U3G U4A C6A U7A C9A U10A,0.213
17,U4G C6A U7C G8A U10A,0.348
18,U3G G5U G8U C9U,0.0452
19,G2C G5C C6U G8C C9U U10C,1.41
20,G2U U3C G5A C6G U7G C9A,0.0791
21,U4A G5C G8U C9U,0.718
22,G2A U3A G5C C6U G8C C9U U10C,1.94
23,U3G U4C G5U G8U C9U,0.0275
24,G2U U3A G5C C6U G8C C9U U10C,3.36

row,Variant,exon inclusion enrichment index
1,U4C G5U C6A U7C G8A U10A,0.501
2,G2A G5C C6A U7C G8A U10A,0.316
3,U4C G5U C6G U7C U10C,4.01
4,U4A G5A,0.00706
5,U4A G5U,0.0569
6,U4A G5C,0.183
7,U3A U4C G5C C6U G8C C9U U10C,2.23
8,G2A U3C G5A C6G U7G C9A,0.0183
9,U4G C6U G8C C9U U10C,0.778
10,U4C G5A C6G U7G C9A,0.0522
11,U3A U4A G5C C6U G8C C9U U10C,1.8
12,G2C U3G G5U G8U C9U,0.38
13,U3C U4G G5A C6G U7G C9A,0.106
14,U3C G5C C6A U7C G8A U10A,0.0284
15,U4A G5A C6A U7C G8A U10A,0.0681
16,U3G U4C G5C C6A U7C G8A U10A,0.139
17,G2A U3C C6A U7A C9A U10A,0.648
18,U3A U4A C6A U7A C9A U10A,0.441
19,U4G G5A C6G U7C U10C,2.22
20,U4C G5U C6U U7A G8U C9A,0.269
21,G2U U3G,0.359
22,G2U U3C,0.216
23,G2U U3A,0.342
24,G2U G5C C6U G8C C9U U10C,3.26

row,Variant,exon inclusion enrichment index
1,U3A U4C C6A U7C C9A U10C,4.11
2,G2U U3G G5A U7C G8A U10C,4.12
3,G2C U3A G5C C6A U7C G8A U10A,0.0802
4,G2C U3A G5A U7C G8A U10C,1.93
5,G2C U3G G5A C6U U7A G8U C9A,0.0859
6,U3C G5C C6U G8C C9U U10C,0.338
7,G2U U3A G5C C6A U7C G8A U10A,0.383
8,G2U U3A C6A U7C C9A U10C,4.33
9,U3A C6A U7A C9A U10A,0.664
10,U4A G5A C6U G8C C9U U10C,0.574
11,U4C G5A C6U U7A G8U C9A,0.47
12,U4C G5C C6U U7A G8U C9A,0.704
13,U3A U4A G5C C6A U7C G8A U10A,0.0877
14,U4C G5U C6G U7G C9A,0.461
15,U3C U4A G5A C6U U7A G8U C9A,0.17
16,G2U U3G G5U G8U C9U,0.724
17,U4A G5U C6U G8C C9U U10C,0.723
18,U3C U4A,0.0261
19,U3C U4G,0.0956
20,U3C U4C,0.208
21,G2A U3C G5C C6U G8C C9U U10C,2.03
22,G2C U3G G5C C6G U7C U10C,2.57
23,U4C C6A U7A C9A U10A,1.51
24,U4A G5U C6G U7C U10C,1.96

row,Variant,exon inclusion enrichment index
1,G2A U3C G5A U7C G8A U10C,2.1
2,G2C U3G C6A U7A C9A U10A,1.14
3,U3G U4C C6A U7C C9A U10C,3.64
4,U3G C6A U7A C9A U10A,0.238
5,G2C U3C G5A C6G U7G C9A,0.0355
6,G2U U3G C6A U7A C9A U10A,2.07
7,G2C U3G C6A U7C C9A U10C,3.19
8,G2A U3C G5C C6G U7C U10C,3.58
9,U3G U4G G5C C6A U7C G8A U10A,0.0147
10,U3G U4A G5A C6G U7G C9A,0.0126
11,G2A U3G G5A C6G U7G C9A,0.00228
12,U4C G5A C6A U7A C9A U10A,0.662
13,G2C U3A G5U G8U C9U,0.19
14,G2C U3A G5C C6U G8C C9U U10C,1.71
15,G2A G5A C6U U7A G8U C9A,0.211
16,U3A G5A C6U U7A G8U C9A,0.265
17,G2C U3C G5C C6U G8C C9U U10C,1.91
18,U3G U4C G5A U7C G8A U10C,2.37
19,U3C G5A C6G U7G C9A,0.00112
20,U4A G5A C6A U7C C9A U10C,2.23
21,G2C U3C G5A C6U U7A G8U C9A,0.0956
22,U4A C6U U7A G8U C9A,0.00525
23,U4C G5U U7C G8A U10C,1.83
